# Results taken from PMC11095456.
# Biological target: EVI1 MAPPIT bait, wild type
# Assay: MAPPIT
# Conditions: HEK293T cells; +Epo; cotransfected with EVI1; parent: est. 29; read off a plot; scale: % of maximum induction
row,Substance,response
1,"CTBP2 MAPPIT prey, wild type (from UniProt P56545) A58E",29
2,"CTBP2 MAPPIT prey, wild type (from UniProt P56545) A58E; V72R",10
3,"CTBP2 MAPPIT prey, wild type (from UniProt P56545) V72R",11

# Biological target: CTBP2 MAPPIT prey, wild type (UniProt P56545)
# Assay: MAPPIT
# Conditions: HEK293T cells; +Epo; cotransfected with CTBP2; parent: est. 32; read off a plot; scale: % of maximum induction
row,Substance,response
1,"EVI1 MAPPIT bait, wild type PLDLS>PLASS",3
2,"EVI1 MAPPIT bait, wild type PFDLT SWAP",3
3,"EVI1 MAPPIT bait, wild type PFDLT>PFAST",30
4,"EVI1 MAPPIT bait, wild type PLDLS SWAP",5
